Experimental data taken from patent US20220125891.

System: T1, FLAG-tagged Regnase-1 AA mutant (S435A/S439A) from Regnase-1-deficient MEFs
T1 sequence: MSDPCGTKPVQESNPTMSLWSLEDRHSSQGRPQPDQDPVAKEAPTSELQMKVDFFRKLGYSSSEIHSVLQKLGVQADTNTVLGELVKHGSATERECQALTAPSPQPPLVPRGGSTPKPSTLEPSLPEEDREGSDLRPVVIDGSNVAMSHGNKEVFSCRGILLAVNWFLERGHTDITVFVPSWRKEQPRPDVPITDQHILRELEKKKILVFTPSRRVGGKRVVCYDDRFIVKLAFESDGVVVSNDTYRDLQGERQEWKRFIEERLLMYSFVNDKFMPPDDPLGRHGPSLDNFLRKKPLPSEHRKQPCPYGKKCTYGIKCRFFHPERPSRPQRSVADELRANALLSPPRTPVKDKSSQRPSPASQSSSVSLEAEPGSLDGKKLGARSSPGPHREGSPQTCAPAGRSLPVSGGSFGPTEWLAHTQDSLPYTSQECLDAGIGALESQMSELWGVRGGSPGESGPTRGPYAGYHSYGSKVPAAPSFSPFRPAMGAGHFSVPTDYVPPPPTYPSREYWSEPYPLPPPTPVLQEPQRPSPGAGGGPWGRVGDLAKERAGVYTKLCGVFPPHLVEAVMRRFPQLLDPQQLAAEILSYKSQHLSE

Substance	in vitro phosphorylation (mobility shift by immunoblotting, 32P autoradiography)
GST-tagged IKKi (Thermo Fisher Scientific)	Phosphorylation of recombinant Regnase-1 by recombinant TBK1 and/or IKKi under in vitro conditions was detected
GST-tagged TBK1 (Sigma)	Phosphorylation of recombinant Regnase-1 by recombinant TBK1 and/or IKKi under in vitro conditions was detected
